Assays:
Experiment in all cases: holdup assay
Set-up in all cases: key: below the threshold = too weak to quantify, mostly under pKd 3.1 to 4
Settings in all cases: plain residues with an end cap or a label only (N-terminal biotin on a linker: ado-ado)
[1] = target: T1, MPP7, Q5T2T1
T1 sequence (Q5T2T1 134-230, limits assumed, looked up): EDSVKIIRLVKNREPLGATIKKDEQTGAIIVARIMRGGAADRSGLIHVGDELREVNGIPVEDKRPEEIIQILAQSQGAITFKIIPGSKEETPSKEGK

[2] = target: T2, NHERF3_1, Q5T2W1
T2 sequence (Q5T2W1 4-100, limits assumed, looked up): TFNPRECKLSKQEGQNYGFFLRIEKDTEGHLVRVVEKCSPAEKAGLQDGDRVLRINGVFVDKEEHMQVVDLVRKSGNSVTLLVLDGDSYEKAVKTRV

[3] = target: SCRIB_2, Q14160
[4] = target: GRIP2_6, Q9C0E4
[5] = target: LNX1_2, Q8TBB1
[6] = target: T3, TJP3_3, O95049
T3 sequence (O95049 375-456, limits assumed, looked up): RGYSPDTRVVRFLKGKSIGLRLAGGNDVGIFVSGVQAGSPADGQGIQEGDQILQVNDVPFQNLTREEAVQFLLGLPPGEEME

[7] = target: LNX1_1, Q8TBB1
[8] = target: T4, LRRC7, Q96NW7
T4 sequence (Q96NW7 1440-1537, limits assumed, looked up): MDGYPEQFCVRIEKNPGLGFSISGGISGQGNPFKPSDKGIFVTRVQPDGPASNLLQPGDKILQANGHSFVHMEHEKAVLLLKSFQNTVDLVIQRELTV

[9] = target: MAGI1_2, Q96QZ7
[10] = target: T5, SYNJ2BP, P57105
T5 sequence (P57105 8-110, limits assumed, looked up): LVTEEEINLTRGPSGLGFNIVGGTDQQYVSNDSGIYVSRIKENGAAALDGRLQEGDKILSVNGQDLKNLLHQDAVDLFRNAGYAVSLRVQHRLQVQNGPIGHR

[11] = target: IL16_1, Q14005
[12] = target: DLG1_1, Q12959
[13] = target: T6, PDZD7_3, Q9H5P4
T6 sequence (Q9H5P4 857-944, limits assumed, looked up): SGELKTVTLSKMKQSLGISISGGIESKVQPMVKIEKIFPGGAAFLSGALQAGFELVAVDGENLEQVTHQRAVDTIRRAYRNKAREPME

[14] = target: T7, MPP6, Q9NZW5
T7 sequence (Q9NZW5 125-219, limits assumed, looked up): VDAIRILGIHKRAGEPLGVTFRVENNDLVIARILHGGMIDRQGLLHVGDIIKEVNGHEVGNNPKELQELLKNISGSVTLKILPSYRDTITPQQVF

[15] = target: HTRA2, O43464
[16] = target: T8, PDZD2_2, O15018
T8 sequence (O15018 329-429, limits assumed, looked up): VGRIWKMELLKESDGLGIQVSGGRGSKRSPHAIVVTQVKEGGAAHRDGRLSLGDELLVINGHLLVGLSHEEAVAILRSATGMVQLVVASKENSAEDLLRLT

[17] = target: T9, MPP2, Q14168
T9 sequence (Q14168 180-250, limits assumed, looked up): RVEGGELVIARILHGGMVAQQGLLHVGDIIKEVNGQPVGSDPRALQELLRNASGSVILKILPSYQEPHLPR

[18] = target: T10, GRIP1_4, Q9Y3R0
T10 sequence (Q9Y3R0 467-571, limits assumed, looked up): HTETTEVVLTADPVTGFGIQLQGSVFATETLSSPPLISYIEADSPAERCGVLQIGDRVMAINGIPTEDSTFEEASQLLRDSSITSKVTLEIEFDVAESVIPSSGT

[19] = target: DLG4_3, P78352
[20] = target: GORASP1, Q9BQQ3
[21] = target: T11, APBA2_2, Q99767
T11 sequence (Q99767 654-744, limits assumed, looked up): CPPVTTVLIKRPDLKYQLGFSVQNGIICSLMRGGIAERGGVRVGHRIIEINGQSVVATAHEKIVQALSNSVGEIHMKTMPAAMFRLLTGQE

[22] = target: MAGI2_4, Q86UL8
[23] = target: T12, RHPN1, Q8TCX5
T12 sequence (Q8TCX5 508-602, limits assumed, looked up): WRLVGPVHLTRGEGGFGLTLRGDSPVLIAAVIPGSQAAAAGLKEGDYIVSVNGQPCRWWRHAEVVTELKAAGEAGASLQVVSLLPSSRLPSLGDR

[24] = target: T13, MPDZ_5, O75970
T13 sequence (O75970 695-796, limits assumed, looked up): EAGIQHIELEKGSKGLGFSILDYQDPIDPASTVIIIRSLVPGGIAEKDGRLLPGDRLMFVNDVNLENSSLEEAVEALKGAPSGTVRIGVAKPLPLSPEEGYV

[25] = target: FRMPD2_3, Q68DX3
Sequence of FRMPD2_3, Q68DX3 (Q68DX3 1073-1166): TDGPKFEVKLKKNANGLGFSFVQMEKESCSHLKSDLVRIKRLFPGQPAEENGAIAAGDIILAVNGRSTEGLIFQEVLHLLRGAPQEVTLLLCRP

Sequence of GRIP2_6, Q9C0E4 (Q9C0E4 648-740): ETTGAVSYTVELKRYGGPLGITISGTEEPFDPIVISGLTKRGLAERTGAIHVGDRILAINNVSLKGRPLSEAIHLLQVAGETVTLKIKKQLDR
Sequence of GORASP1, Q9BQQ3 (Q9BQQ3 1-208): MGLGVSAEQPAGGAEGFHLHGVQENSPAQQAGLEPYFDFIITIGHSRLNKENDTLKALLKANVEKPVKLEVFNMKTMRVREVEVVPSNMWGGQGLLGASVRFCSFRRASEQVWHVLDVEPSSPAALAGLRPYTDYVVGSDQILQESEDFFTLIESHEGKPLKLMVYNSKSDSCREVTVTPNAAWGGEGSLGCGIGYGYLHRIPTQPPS
Sequence of DLG4_3, P78352 (P78352 306-403): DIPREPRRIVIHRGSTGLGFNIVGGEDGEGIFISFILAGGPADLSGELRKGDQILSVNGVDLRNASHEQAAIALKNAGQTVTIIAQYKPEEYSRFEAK
Sequence of MAGI1_2, Q96QZ7 (Q96QZ7 456-580): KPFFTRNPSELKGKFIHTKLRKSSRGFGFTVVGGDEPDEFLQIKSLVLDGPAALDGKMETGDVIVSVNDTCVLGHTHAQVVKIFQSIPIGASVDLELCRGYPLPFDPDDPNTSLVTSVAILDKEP
Sequence of IL16_1, Q14005 (Q14005 210-306): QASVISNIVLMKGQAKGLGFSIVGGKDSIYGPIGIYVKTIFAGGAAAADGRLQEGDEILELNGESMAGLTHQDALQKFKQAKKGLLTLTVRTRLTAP
Sequence of MAGI2_4, Q86UL8 (Q86UL8 772-865): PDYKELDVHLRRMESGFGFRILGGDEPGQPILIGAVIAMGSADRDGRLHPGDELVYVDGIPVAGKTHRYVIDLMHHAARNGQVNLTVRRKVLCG
Sequence of SCRIB_2, Q14160 (Q14160 857-960): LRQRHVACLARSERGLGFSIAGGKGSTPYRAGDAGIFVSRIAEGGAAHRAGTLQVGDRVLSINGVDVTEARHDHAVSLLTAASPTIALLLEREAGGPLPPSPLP
Sequence of LNX1_1, Q8TBB1 (Q8TBB1 261-371): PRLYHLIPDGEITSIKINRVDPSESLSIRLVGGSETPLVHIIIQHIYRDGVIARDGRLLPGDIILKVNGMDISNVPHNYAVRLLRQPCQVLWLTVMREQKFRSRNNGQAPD
Sequence of HTRA2, O43464 (O43464 355-458): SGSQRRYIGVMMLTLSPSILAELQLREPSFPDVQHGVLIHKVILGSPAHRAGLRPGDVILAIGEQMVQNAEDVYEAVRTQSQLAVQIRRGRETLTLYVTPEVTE
Sequence of LNX1_2, Q8TBB1 (Q8TBB1 371-470): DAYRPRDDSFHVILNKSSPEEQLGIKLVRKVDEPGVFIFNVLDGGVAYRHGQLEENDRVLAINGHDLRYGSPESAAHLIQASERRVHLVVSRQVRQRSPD

## MHIQEKGFHV [EPHA6, Q9UF33]
[1]
  pKd: below the threshold
[2]
  pKd: 3.71
[3]
  pKd: below the threshold
[4]
  pKd: 3.59
[5]
  pKd: 3.77
[6]
  pKd: below the threshold
[7]
  pKd: below the threshold
[8]
  pKd: below the threshold
[9]
  pKd: below the threshold
[10]
  pKd: below the threshold
[11]
  pKd: below the threshold
[12]
  pKd: below the threshold
[13]
  pKd: below the threshold
[14]
  pKd: below the threshold
[15]
  pKd: below the threshold
[16]
  pKd: below the threshold
[17]
  pKd: below the threshold
[18]
  pKd: below the threshold
[19]
  pKd: below the threshold
[20]
  pKd: below the threshold
[21]
  pKd: below the threshold
[22]
  pKd: below the threshold
[23]
  pKd: below the threshold
[24]
  pKd: below the threshold
[25]
  pKd: below the threshold

## VLYPREGTEV [FOXI1, Q12951]
[1]
  pKd: below the threshold
[2]
  pKd: 3.7
[3]
  pKd: 4.16
[4]
  pKd: below the threshold
[5]
  pKd: 3.6
[6]
  pKd: 3.48
[7]
  pKd: 4.17
[8]
  pKd: 3.49
[9]
  pKd: 3.95
[10]
  pKd: 5.23
[11]
  pKd: 4
[12]
  pKd: 4.4
[13]
  pKd: 3.99
[14]
  pKd: below the threshold
[15]
  pKd: below the threshold
[16]
  pKd: 4.93
[17]
  pKd: below the threshold
[18]
  pKd: below the threshold
[19]
  pKd: 3.57
[20]
  pKd: below the threshold
[21]
  pKd: below the threshold
[22]
  pKd: 4.98
[23]
  pKd: 3.95
[24]
  pKd: 3.66
[25]
  pKd: below the threshold

## RDPPAEWTRV [PTPN18, Q99952]
[1]
  pKd: below the threshold
[2]
  pKd: 4.33
[3]
  pKd: 4.12
[4]
  pKd: below the threshold
[5]
  pKd: 3.47
[6]
  pKd: below the threshold
[7]
  pKd: 3.73
[8]
  pKd: below the threshold
[9]
  pKd: below the threshold
[10]
  pKd: below the threshold
[11]
  pKd: below the threshold
[12]
  pKd: 4.09
[13]
  pKd: 4.83
[14]
  pKd: below the threshold
[15]
  pKd: below the threshold
[16]
  pKd: 4.18
[17]
  pKd: below the threshold
[18]
  pKd: below the threshold
[19]
  pKd: below the threshold
[20]
  pKd: 4.07
[21]
  pKd: below the threshold
[22]
  pKd: 3.48
[23]
  pKd: 4.35
[24]
  pKd: below the threshold
[25]
  pKd: below the threshold

— article PMC9482650, “Quantitative fragmentomics allow affinity mapping of interactomes” (Nature Communications, 2022)
